Source: patent publication US8541373B2, “BChE albumin fusions for the treatment of cocaine abuse” (priority 2009, dated 2013)
Values joined by “and” are separate entries in the source; they are usually repeats but may differ in a detail not shown here. Identical values can stand only once.

Tests used:
[1] = AlbuBChE serum pharmacokinetics after single 5 mg/kg IM dose (ELISA); conditions: for AlbuBChE serum concentration, individual Squirrel monkeys: 5 mg/kg IM
Experimental: To evaluate AlbuBChE pharmacokinetics and pharmacodynamics following a single 5 mg/kg intramuscular injection of AlbuBChE to Squirrel monkeys. AlbuBChE pharmacodynamic effect was measured following cocaine IV administration at a dose of 1 mg/kg in control animals or at 2, 72 and 96 hr post-AlbuBChE dose.
Blood samples (0.4 mL) were collected from the femoral vein and placed into serum separator tubes (SST) at pre-dose, 24, 72, 96 & 336 hrs post-dose (samples collected at 336 hr (14 days) post-dose were intended to evaluate immunogenicity. The samples were also analyzed for AlbuBChE concentration). Tubes were maintained at room temperature for at least 1 hour, but not to exceed 4 hours prior to centrifugation. Samples were centrifuged and at least 200 μL of serum was harvested and maintained on dry ice prior to storage at approximately −70° C.
Blocking is done with 2% casein in phosphate buffered saline (PBS), 200 μL/well, 2 hours at room temperature. After washing, 100 μL of diluted serum samples are added to the plates along with standards. Standards are generated through 2.6 fold, serial dilution of AlbuBChE from 420 to 5.2 ng/mL. Serum samples and standards are maintained at 10% serum by dilution with buffer containing pooled cynomolgus monkey serum. A wash step precedes detection with 100 μl of anti-HSA mAb-6502-HRP at 0.04 μg/mL for 1 hour. Wells are washed again, prior to developing with 100 μl, of tetramethylbenzidine substrate. After 15 minutes the reaction is terminated with 100 μL/well of 1N H2SO4 and read on SpectraMax plate reader at 450/570 nm. Values for unknown serum samples are calculated by interpolation of standard curve generated by 5-parameter fit of AlbuBChE standards. Serum samples collected at predose and on Day 14 postdose were also analyzed for immunogenicity.
AlbuBChE pharmacokinetic parameter values were determined using serum concentration-time profiles for individual animals. The computer software WinNonlin Professional (Version 4.0.1 Pharsight Corporation, USA) was used. Specifically the model for non-compartmental analysis with extravascular input was applied.

cocaine = assay: AlbuBChE PK/PD analysis, sigmoidal inhibitory effect Emax model (cocaine AUC)
From the text: AlbuBChE PK/PD relationship was defined using the computer software WinNonlin Professional (Version 4.0.1 Pharsight Corporation, USA). Specifically the direct sigmoidal inhibitory Effect Emax model was use in which maximum effect (Emax) as measured by cocaine AUC was assumed at AlbuBChE concentration of zero. The model equation can be described as follows: Inhibitory Effect Sigmoid Emax, C=0 at Emax, C=infinity at Eo E=Emax−(Emax−E0)*(C**Gamma/(C**Gamma+EC50**Gamma))
The PD parameter used in the analysis was cocaine AUC. PK parameters used in the model were AlbuBChE plasma concentrations at 2, 48, 96, 120, and 240 hr post-AlbuBChE dose. Due to the fact that AlbuBChE concentration was not measured at 2 hr post-AlbuBChE dose, the concentration at 3 hr postdose was used in the analysis with the assumptions that AlbuBChE concentration at 3 hr post AlbuBChE dose may reflect AlbuBChE conc. at 2 hr post AlbuBChE dose.

[2] = system: cocaine discriminative-stimulus effects; assay: Drug discrimination in methamphetamine-trained monkeys; assay type: in vivo, squirrel monkeys
[3] = system: cocaine-induced reinstatement; assay: Reinstatement of cocaine self-administration; assay type: in vivo, squirrel monkeys (Saimiri sciureus)
Experimental: The blood level data were analyzed separately for each metabolite and time point (5 or 30 min). […] The self-administration data were analyzed separately for response rate or injections following either vehicle treatment or AlbuBChE treatment. Control data were included in the analysis by taking the average of the last 3 days for the immediately preceding baseline condition. A within subjects ANOVA was then performed with follow-up tests contrasting days following vehicle or AlbuBChE with the control. For the reinstatement tests, a two-way ANOVA was performed for both response rate and injections, with time post vehicle or AlbuBChE as the within-subjects factor and pretreatment (vehicle or AlbuBChE) as the between subjects factor. Follow-up contrast compared vehicle and AlbuBChE at each time point.

[4] = Previous pharmacokinetic study, SC, IM and IV administration (bioavailability); conditions: previous study in cynomolgus monkeys
Experimental: AlbuBChE absolute bioavailability for IM and Sc routes of administration was calculated relative to IV at the […] dose level.
In a previous study, AlbuBChE pharmacokinetic profile was evaluated in cynomolgus monkeys. In that study, the test article was administered SC (7.8, 2.4 and 0.78 mg/kg), IM (2.4 mg/kg) and IV (2.4 mg/kg). […] In addition, AlbuBChE IM dose levels of 0.2, 1 and 5 mg/kg were selected to define AlbuBChE pharmacodynamic range in cynomolgus monkeys.

[5] = individual Squirrel monkeys, single IM 5 mg/kg
[6] = individual Squirrel monkeys, single IM 5 mg/kg, apparent, first sample at 24 hr
[7] = mean of 3 Squirrel monkeys, single IM 5 mg/kg

AlbuBChE
AlbuBChE serum concentration, individual Squirrel monkeys ([1]; 24 hr post dose): 2340.2 ng/mL and 2296.7 ng/mL and 2036.7 ng/mL | AlbuBChE serum concentration, individual Squirrel monkeys ([1]; 72 hr post dose): 436.9 ng/mL and 517.7 ng/mL and 433.7 ng/mL | AlbuBChE serum concentration, individual Squirrel monkeys ([1]; 96 hr post dose): 247.5 ng/mL (2×) and 233.5 ng/mL | AlbuBChE serum concentration, individual Squirrel monkeys ([1]; 336 hr post dose): 23.4 ng/mL and 19.0 ng/mL and 7.0 ng/mL | t½ ([1]; individual Squirrel monkeys (MKY 547, 3434, 53B), single IM 5 mg/kg AlbuBChE, serum, non-compartmental): 58.8 h and 45.5 h and 65.5 h | AUC % Extrap [1, 5]: 1.17% and 0.380% and 1.61% | AUC(0-t) [1, 5]: 136.268 µg·h/mL and 120.596 µg·h/mL and 135.454 µg·h/mL | AUC(0-∞) [1, 5]: 137.881 µg·h/mL and 121.056 µg·h/mL and 137.666 µg·h/mL | Cmax [1, 6]: 2297 ng/mL and 2037 ng/mL and 2340 ng/mL | tmax [1, 6]: 24 h | AUC(0-t) Mean [1, 7]: 130.773 µg·h/mL | AUC(0-∞) Mean [1, 7]: 132.201 µg·h/mL | AlbuBChE Conc. used in PK/PD analysis, individual animals (cocaine; 0.2 mg/kg IM, time 2 hr): 107 ng/mL and 257 ng/mL and 196 ng/mL | AlbuBChE Conc. used in PK/PD analysis, individual animals (cocaine; 0.2 mg/kg IM, time 48 hr): 0 ng/mL and 66.4 ng/mL and 80.7 ng/mL | AlbuBChE Conc. used in PK/PD analysis, individual animals (cocaine; 0.2 mg/kg IM, time 96 hr): 0 ng/mL (2×) and 30 ng/mL | AlbuBChE Conc. used in PK/PD analysis, individual animals (cocaine; 0.2 mg/kg IM, time 120 hr): 0 ng/mL | AlbuBChE Conc. used in PK/PD analysis, individual animals (cocaine; 0.2 mg/kg IM, time 240 hr): 0 ng/mL | Cocaine AUC(0-t), individual animals (cocaine; 0.2 mg/kg IM, cocaine 1 mg/kg IV 2 hr post-AlbuBChE): 13317 ng·min/mL and 10812 ng·min/mL and 11504 ng·min/mL | Cocaine AUC(0-t), individual animals (cocaine; 0.2 mg/kg IM, cocaine 1 mg/kg IV 48 hr post-AlbuBChE): 8550 ng·min/mL and 7315 ng·min/mL and 7276 ng·min/mL | Cocaine AUC(0-t), individual animals (cocaine; 0.2 mg/kg IM, cocaine 1 mg/kg IV 96 hr post-AlbuBChE): 13936 ng·min/mL and 8978 ng·min/mL and 10522 ng·min/mL | Cocaine AUC(0-t), individual animals (cocaine; 0.2 mg/kg IM, cocaine 1 mg/kg IV 120 hr post-AlbuBChE): 11293 ng·min/mL and 11428 ng·min/mL and 12111 ng·min/mL | Cocaine AUC(0-t), individual animals (cocaine; 0.2 mg/kg IM, cocaine 1 mg/kg IV 240 hr post-AlbuBChE): 13669 ng·min/mL and 12762 ng·min/mL and 14649 ng·min/mL | AlbuBChE Conc. used in PK/PD analysis, individual animals (cocaine; 1 mg/kg IM, time 2 hr): 1362 ng/mL and 918 ng/mL and 1777 ng/mL | AlbuBChE Conc. used in PK/PD analysis, individual animals (cocaine; 1 mg/kg IM, time 48 hr): 389 ng/mL and 363 ng/mL and 264 ng/mL | AlbuBChE Conc. used in PK/PD analysis, individual animals (cocaine; 1 mg/kg IM, time 96 hr): 87 ng/mL and 132 ng/mL and 75 ng/mL | AlbuBChE Conc. used in PK/PD analysis, individual animals (cocaine; 1 mg/kg IM, time 120 hr): 36 ng/mL and 72 ng/mL and 38 ng/mL | AlbuBChE Conc. used in PK/PD analysis, individual animals (cocaine; 1 mg/kg IM, time 240 hr): 0 ng/mL | Cocaine AUC(0-t), individual animals (cocaine; 1 mg/kg IM, cocaine 1 mg/kg IV 2 hr post-AlbuBChE): 6597 ng·min/mL and 9746 ng·min/mL and 7297 ng·min/mL | Cocaine AUC(0-t), individual animals (cocaine; 1 mg/kg IM, cocaine 1 mg/kg IV 48 hr post-AlbuBChE): 6025 ng·min/mL and 5033 ng·min/mL and 6839 ng·min/mL | Cocaine AUC(0-t), individual animals (cocaine; 1 mg/kg IM, cocaine 1 mg/kg IV 96 hr post-AlbuBChE): 9166 ng·min/mL and 9925 ng·min/mL and 11042 ng·min/mL | Cocaine AUC(0-t), individual animals (cocaine; 1 mg/kg IM, cocaine 1 mg/kg IV 120 hr post-AlbuBChE): 10451 ng·min/mL and 11561 ng·min/mL and 12568 ng·min/mL | Cocaine AUC(0-t), individual animals (cocaine; 1 mg/kg IM, cocaine 1 mg/kg IV 240 hr post-AlbuBChE): 14533 ng·min/mL and 13998 ng·min/mL and 14560 ng·min/mL | AlbuBChE Conc. used in PK/PD analysis, individual animals (cocaine; 5 mg/kg IM, time 2 hr): 3740 ng/mL and 9627 ng/mL and 4923 ng/mL | AlbuBChE Conc. used in PK/PD analysis, individual animals (cocaine; 5 mg/kg IM, time 48 hr): 1330 ng/mL and 2644 ng/mL and 1605 ng/mL | AlbuBChE Conc. used in PK/PD analysis, individual animals (cocaine; 5 mg/kg IM, time 96 hr): 415 ng/mL and 733 ng/mL and 455 ng/mL | AlbuBChE Conc. used in PK/PD analysis, individual animals (cocaine; 5 mg/kg IM, time 120 hr): 217 ng/mL and 326 ng/mL and 224 ng/mL | AlbuBChE Conc. used in PK/PD analysis, individual animals (cocaine; 5 mg/kg IM, time 240 hr): 58 ng/mL and 71 ng/mL and 63 ng/mL | Cocaine AUC(0-t), individual animals (cocaine; 5 mg/kg IM, cocaine 1 mg/kg IV 2 hr post-AlbuBChE): 4594 ng·min/mL and 3039 ng·min/mL and 2234 ng·min/mL | Cocaine AUC(0-t), individual animals (cocaine; 5 mg/kg IM, cocaine 1 mg/kg IV 48 hr post-AlbuBChE): 3323 ng·min/mL and 2628 ng·min/mL and 3095 ng·min/mL | Cocaine AUC(0-t), individual animals (cocaine; 5 mg/kg IM, cocaine 1 mg/kg IV 96 hr post-AlbuBChE): 6428 ng·min/mL and 6887 ng·min/mL and 6556 ng·min/mL | Cocaine AUC(0-t), individual animals (cocaine; 5 mg/kg IM, cocaine 1 mg/kg IV 120 hr post-AlbuBChE): 7954 ng·min/mL and 9620 ng·min/mL and 10560 ng·min/mL | Cocaine AUC(0-t), individual animals (cocaine; 5 mg/kg IM, cocaine 1 mg/kg IV 240 hr post-AlbuBChE): 11173 ng·min/mL and 13745 ng·min/mL and 13937 ng·min/mL | AlbuBChE serum concentration that may result in 50% decrease in cocaine concentration (EC50) (cocaine; cynomolgus monkeys, sigmoidal inhibitory effect Emax model, PD parameter cocaine AUC): ~0.6 µg/mL | Generalization of cocaine to the methamphetamine cue ([2]; 5 mg/kg 2 hrs prior, 0.3 mg/kg cocaine): failed to generalize | Substitution of cocaine for methamphetamine ([2]; 5 mg/kg 2 hrs prior, 1.0 mg/kg cocaine): approximately 70% | Generalization of cocaine to the methamphetamine cue ([2]; 24 hrs following AlbuBChE, 0.3 mg/kg cocaine): approximately 70% | Generalization of cocaine to the methamphetamine cue ([2]; 24 hrs following AlbuBChE, 1.0 mg/kg cocaine): fully generalized | Generalization of cocaine to the methamphetamine cue ([2]; 48 hrs following AlbuBChE, 0.3 mg/kg cocaine): fully generalized | Generalization of methamphetamine to the methamphetamine cue ([2]; AlbuBChE 2 hrs prior to methamphetamine dose-effect function): did not affect generalization | Rate of responding in discrimination study ([2]; cocaine or methamphetamine treatment condition): did not affect the rate of responding | Reinstatement of responding (response rate and injections) ([3]; 5 mg/kg i.m., 0.3 mg/kg cocaine i.v., 2 hr time point): significantly blocked | Reinstatement of responding (responses and injections) ([3]; 5 mg/kg, 0.1 mg/kg cocaine as reinstatement dose): significant at 2 hrs | Bioavailability ([4]; IM): 79% | Bioavailability ([4]; SC): 35-39%
